Measurements taken from patent EP4703386A1 (Shanghai Sinobay Biotechnology Co., Ltd., dated 2026).

Experiments:
[1] = target: T1, CD276 protein on tumor target cells (NCI-H292, SK-OV-3) (human, UniProt Q5ZPR3 29-534); assay: flow cytometry on NCI-H292 cells, IgG-Fc-PE second antibody
T1 construct: whole, on cells; for SK-OV-3 it is implied by the use of CD276-targeted BiTE and CAR; also called B7-H3; CD276-expressing target cells
T1 sequence (looked up): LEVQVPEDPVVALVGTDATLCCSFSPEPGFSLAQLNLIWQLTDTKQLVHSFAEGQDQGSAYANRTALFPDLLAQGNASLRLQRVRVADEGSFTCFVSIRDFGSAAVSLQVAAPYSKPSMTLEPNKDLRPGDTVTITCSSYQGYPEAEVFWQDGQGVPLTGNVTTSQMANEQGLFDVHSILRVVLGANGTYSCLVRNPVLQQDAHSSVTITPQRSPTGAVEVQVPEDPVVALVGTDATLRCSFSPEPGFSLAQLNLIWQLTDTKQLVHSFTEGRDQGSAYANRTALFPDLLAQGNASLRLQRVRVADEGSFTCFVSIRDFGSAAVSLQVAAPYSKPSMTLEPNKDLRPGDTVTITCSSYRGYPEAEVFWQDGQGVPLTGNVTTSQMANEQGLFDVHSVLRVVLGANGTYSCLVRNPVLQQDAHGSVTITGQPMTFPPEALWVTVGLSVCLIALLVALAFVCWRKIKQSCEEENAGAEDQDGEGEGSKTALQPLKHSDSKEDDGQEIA

[2] = target: T1, CD276 protein on tumor target cells …; assay: cell-based or functional assay
[3] = target: T1, CD276 protein on tumor target cells …; assay: flow cytometry on NCI-H292 cell line (Fig. 3)

B1: Hu012-13 (antibody, IgG1, V domains shown)
VH: EVQLVQSGAEVKKPGASVKVSCKASGYTFTSYGISWVRQAPGQGLEWMGWISAYNGNTNYAQKLQGRVTMTTDTSTSTAYMELRSLRSDDTAVYYCARAPYYGGYDYWGQGTMVTVSS
VL: ETTLTQSPGTLSLSPGDRATLSCRASQSVRSSYLAWYQQKPGQAPRLVIYGASNRAAGIPDRFSGSGSGTDFTLTISGLEPEDFAVYYCQEYGYSLPNTFGQGTKLEIK
notes: Full-length IgG1 (AbVec-hIgG1, AbVec-hIgKappa); also called candidate antibody Hu012-13
**Q.** Does B1 bind [1]?
**A.** Result: binds

B2: Hu012-7-4-1BB-CD3ζ chimeric antigen receptor on lentivirus-transduced T cells (other)
chain: GDYKDDDDKGSEVQLVESGGGVVQPGRSLTLSCAASGFTFNGYSMHWVRQAPGKGLEWVAVMSSDGGNKYYADSVKGRFTISRDNSKNTLYLQMNGLRPEDTAVYYCARAVSSGWSLPFDFWGHGTLVTVSSGGGGSGGGGSGGGGSDIVMTQSPSSLSTSIGDRVTITCRASQGISNFLAWFQQKPGKAPKSLIYAASRLQSGVPSKFSGSGSGTNFTLTISSLQPEDFATYYCQQYDSYPLTFGGGTKVEIKTRTTTPAPRPPTPAPTIASQPLSLRPEACRPAAGGAVHTRGLDFACDIYIWAPLAGTCGVLLLSLVITLYCKRGRKKLLYIFKQPFMRPVQTTQEEDGCSCRFPEEEEGGCELRVKFSRSADAPAYKQGQNQLYNELNLGRREEYDVLDKRRGRDPEMGGKPRRKNPQEGLYNELQKDKMAEAYSEIGMKGERRRGKGHDGLYQGLSTATKDTYDALHMQALPPR
**Q.** Which results are given for B2?
**A.** killing efficiency on SKOV3 cells, effector to target ratio 1:1 [2]: ~30%; killing efficiency on SKOV3 cells, effector to target ratio 2:1 [2]: > 60%

B3: Hu012-14 (antibody, IgG1, V domains shown)
VH: EVQLVETGGGLVQPGGSLRLSCAASGFTFSSYGMTWVRQPPGKGLEWVSHISGSGTNTYYADSVKGRFTISRDNSKNTLYLQMNNLGAEDTAVYYCAKLKWGHSGYGDYWGQGTTVTVSS
VL: EIVLTQSPATLSLSPGERATLSCRASQTISRYLAWYQQKPGQAPRLLIYDASNRATGIPARFSGSGSDTDFTLTISSIEPEDFAVYYCQERSNWPQVTFGPGTKLEIK
notes: Full-length IgG1 (AbVec-hIgG1, AbVec-hIgKappa); also called candidate antibody Hu012-14
**Q.** Does B3 bind [1]?
**A.** Result: binds

B4: Hu012-21 (antibody, IgG1, V domains shown)
VH: EVQLVQSGGGVVQPGRSLRLSCAASGFTFSSYGMHWVRQAPGKGLEWVAVISYDGSNKYYADSVKGRFTISRDNSKDTLYLQMNSLRAEDTAVYYCAKDKLMGWHNYGMDVWGQGTTVTVSS
VL: AIQLTQSPSSLSASVGDRVTITCRASQSINSYLNWYQQKPGKAPKVLIYAASNLQSGVPSRFSGSGSGTDFTLTISSLQPEDFATYYCQQSYSTPPTFGQGTKLEIK
notes: Full-length IgG1 (AbVec-hIgG1, AbVec-hIgKappa); also called candidate antibody Hu012-21
**Q.** Does B4 bind [1]?
**A.** Result: binds

B5: CD276(Hu012-7)BiTE (bispecific antibody)
chain: DIVMTQSPSSLSTSIGDRVTITCRASQGISNFLAWFQQKPGKAPKSLIYAASRLQSGVPSKFSGSGSGTNFTLTISSLQPEDFATYYCQQYDSYPLTFGGGTKVEIKGGGGSGGGGSGGGGSEVQLVESGGGVVQPGRSLTLSCAASGFTFNGYSMHWVRQAPGKGLEWVAVMSSDGGNKYYADSVKGRFTISRDNSKNTLYLQMNGLRPEDTAVYYCARAVSSGWSLPFDFWGHGTLVTVSSGGGGSQVQLVQSGAEVKKPGASVKVSCKASGYTFTRYTMHWVRQAPGQGLEWMGYINPSRGYTNYNQKFKDRVTITADKSTSTAYMELSSLRSEDTAVYYCARYYDDHYCLDYWGQGTTVTVSSGGGGSGGGGSGGGGSGSEIVLTQSPATLSLSPGERATLSCSASSSVSYMNWYQQKPGKAPKRLIYDTSKLASGVPSRFSGSGSGTDFTLTINSLEAEDAATYYCQQWSSNPFTFGQGTKVEIKR
**Q.** What does the source list for B5?
**A.** fold increase in killing the NCI-H292 tumor cell line against control BiTE [2]: 1.2 fold; fold increase in killing the SK-OV3 tumor cell line against control BiTE [2]: 2.1 fold

B6: Hu012-6 (antibody, IgG1, V domains shown)
VH: QMQLVQSGGGLVQPGGSLRLSCAASGFTFSSYWMSWVRQAPGKGLEWVANIKQDGSEKYYVDSVKGRFTISRDNAKNSLYLQMNSLRAEDTAVYYCARSPHYDFWRRDYYYGMDVWGQGTLVTVSS
VL: QSVLTQPPSVSATPGQTVTISCSGSTSNIATNYVSWYQHLPGSAPKLLIYDNNKRPSGIPDRFSGSKSGTSATLDIIGLQTGDEADYYCGVWDPSLTTYVFGTGTQLTAL
notes: Full-length IgG1 (AbVec-hIgG1, AbVec-hIgKappa); also called candidate antibody Hu012-6
**Q.** Does B6 bind [3]?
**A.** Result: binds

B7: Hu012-29 (antibody, V domains shown)
VH: EVQLVESGGGLVQPGGSLRLSCAASRNIFRFYTMGWYRQAPEKQRDLVARITSDGTTNYADSVKGRFTISRDNAKNTVYLQMNSLKPEDTAVYYCNTDLPLNTYWAQGTLVTVSS
VL: DIQMTQSPSSLSASVGDRVTITCRASQSISSSLNWYQHKPGKAPKLLIYSASILQSGVPSRFSGSGSGTDYTLTISSLQPEDFATYSCQQSYTTPYTFGLGTKLEIK
notes: Full-length IgG1 (AbVec-hIgG1, AbVec-hIgKappa); also called candidate antibody Hu012-29
**Q.** Does B7 bind [1]?
**A.** Result: binds

B8: Hu012-27 (antibody, IgG1, V domains shown)
VH: QVQLVQSGGGVVQPGRSLRLSCAASGFTFSSYAMHWVRQAPGKGLEWVAVISYDGSNKYYADSVKGRFTISRDNSKNTLYLQMNSLRAEDTTVYYCARDRRYYSSMDVWGQGTTVTVSS
VL: QTVVTQEPSFSVSPGGTITLTCGLSSGSVSTSYYPSWYQQTPGQAPRTLIYNTNTRSSGVPDRFSGSILGNKAALTITGAQADDESHYYCALHMDSGSWVFGGGTQLTVL
notes: Full-length IgG1 (AbVec-hIgG1, AbVec-hIgKappa); also called candidate antibody Hu012-27
**Q.** Does B8 bind [1]?
**A.** Result: binds

B9: Hu012-8 (antibody, IgG1, V domains shown)
VH: QVQLVQSGAEVKKPGASVRVSCKGSGYTFTDHHMYWVRQAPGQGLEWMGRINPNTGVTNYAQKFQGRVSMTRDTSINTVYLELRSLKSDDAAVYYCGRDQVVMVPGVPLDLGMDVWGQGTTVTVSS
VL: NIQMTQSPSSLSASVGDRVTITCRASQTISRYLNWYQQKPGKAPKLLIYAASSLQSGVPSRFSGSGSGADFTLTINTLQPEDFATYYCQQSYRTPQTFGQGTKVEIK
notes: Full-length IgG1; also called candidate antibody Hu012-8
**Q.** For B9, which positive rate [1] is on record?
**A.** Its positive rate is roughly 100%.

B10: Hu012-1 (antibody, V domains shown)
VH: QVTLKESGGGLVQPGGSLRLSCAASGSIFNMYAMGWYRQAPGKQRELVASITSGGSTHYADSVKGRFTISRDNAKNTMYLQMNSLKPEDTAVYYCRQNDGMDYWGKGTLVTVSS
VL: QAGLTQPPSVSVAPGKTARITCGGNNIGSKSVHWYQQKPGQAPVVVIYDDSDRPSGIPERFSGSNSGNTATLTISRVEAGDEADFYCQVWDSSSDRYVFGTGTKLTVL
notes: Full-length IgG1 (AbVec-hIgG1, GenBank FJ475055.1; AbVec-hIgKappa, GenBank FJ475056.1); also called candidate antibody Hu012-1
**Q.** How did the positive rate [1] turn out when B10 was run?
**A.** Its positive rate is roughly 100%.

B11: CD276(Hu012-8)BiTE (bispecific antibody)
chain: NIQMTQSPSSLSASVGDRVTITCRASQTISRYLNWYQQKPGKAPKLLIYAASSLQSGVPSRFSGSGSGADFTLTINTLQPEDFATYYCQQSYRTPQTFGQGTKVEIKGGGGSGGGGSGGGGSQVQLVQSGAEVKKPGASVRVSCKGSGYTFTDHHMYWVRQAPGQGLEWMGRINPNTGVTNYAQKFQGRVSMTRDTSINTVYLELRSLKSDDAAVYYCGRDQVVMVPGVPLDLGMDVWGQGTTVTVSSGGGGSQVQLVQSGAEVKKPGASVKVSCKASGYTFTRYTMHWVRQAPGQGLEWMGYINPSRGYTNYNQKFKDRVTITADKSTSTAYMELSSLRSEDTAVYYCARYYDDHYCLDYWGQGTTVTVSSGGGGSGGGGSGGGGSGSEIVLTQSPATLSLSPGERATLSCSASSSVSYMNWYQQKPGKAPKRLIYDTSKLASGVPSRFSGSGSGTDFTLTINSLEAEDAATYYCQQWSSNPFTFGQGTKVEIKR
**Q.** Which “fold increase in killing the NCI-H292 tumor cell line against control BiTE” value [2] does the source give for B11 here?
**A.** The value was 1.2 fold.

**Q.** What about the “fold increase in killing the SK-OV3 tumor cell line against control BiTE” value [2] of the same binder?
**A.** Its value is 2 fold.

B12: Hu012-24 (antibody, IgG1, V domains shown)
VH: EVQLVQSGGGLVKPGGSLRLSCAASGFTFSRHSMNWVRQAPGKGLEWVSSISSNDEHIIYADSVKGRFTISRDNSKNTLYLEMNSLRAEDTAVYYCARASRYGGSYYGLDYWGQGTLVTVSS
VL: QTVVTQEPSFSVSPGGTVTLTCGLTSGSVSTTYFPSWYQQTPGQPPRRLIYNTNTRSSGVPDRFSGSIVGIKAALTITGAQAEDESDYYCALYLGSGIVEFGGGTKLTVL
notes: Full-length IgG1 (AbVec-hIgG1, AbVec-hIgKappa); also called candidate antibody Hu012-24
**Q.** How did the positive rate [1] turn out when B12 was run?
**A.** The positive rate was roughly 100%.

B13: Hu012-3 (antibody, IgG1, V domains shown)
VH: QVQLVQSGAEVKKPGESLRISCKGSGYSFTSYWISWVRQMPGKGLEWMGRIDPSDSYTNYSPSFQGHVTISADKSISTAYLQWSSLKASDTAMYYCARHDASGGGPSDYWGQGTLVTVSS
VL: QSVLTQPPSVSAAPGQRVTISCSGSSSNIGDHYVSWYQQLPGTAPKLLIYDNNKRPSGIPDRFSGSKSGTSATLGITGLQTGDEADYYCGTWDSSLSVPNWVFGGGTKVTVL
notes: Full-length IgG1 (AbVec-hIgG1, AbVec-hIgKappa); also called candidate antibody Hu012-3
**Q.** Does B13 bind [3]?
**A.** Result: binds
